Values belong to the molecule of their own block, whether it stands above or below them.
How the values were obtained:
integrin αvβ3 = molecular target: T1, integrin αvβ3 (Homo sapiens, UniProt P05106+P06756); experiment: Soluble integrin binding assay (ELISA-type), soluble αvβ3 on immobilized FGF; conditions: coated at 10 μg/ml; soluble αvβ3 5 μg/ml, 1 mM MnCl2
T1 construct: using the soluble αv and β3 expression constructs provided by Tim Springer; made in house; host or cells: CHO K1
Procedure: Wells of 96-well microtiter plates were coated with 10 μg/ml FGF-1 or FGF-2 and remaining protein binding sites were blocked with 1 mg/ml BSA. Recombinant soluble αvβ3 (50 μl/well at 5 μg/ml in Hepes-Tyrode buffer supplemented with 1 mM MnCl2) was added to wells and incubated for 1 h at room temperature. Soluble αvβ3 was incubated with 10 μg/ml 7E3 (white bar) or mouse IgG (black bar) for 10 min on ice prior to adding to the wells. BSA (circle) was used as a negative control. Data is shown as means+/−SD of triplicate experiments.
FGF-1 (10 μg/m) was heat-treated at indicated temperature for 10 min prior to immobilization. Binding of soluble αvβ3 was determined as described in FIG. 1. Data is shown as percent binding+/−SD of triplicate experiments.
Amino acid residues in the integrin-binding site or in the FGFR-binding site were mutated individually or in groups. Wild-type (diamond), R50E (open square), N33A (closed square), 4xE (circle), 3xA (triangle) were coated to a plastic plate various concentration as indicated and the binding of soluble αvβ3 was determined as described in FIG. 2. BSA (cross) was used as a negative control. […] “4xE” represents the K127E/K128E/K133E/R134E mutant. “3xA” represents the E102A/Y109A/Q110A mutant.
Binding assays were performed as previously described (Takagi et al., 2001). Native or heat-denatured FGF-1 in 0.1 M carbonate buffer, pH 9.4, were incubated in a polystyrene 96-well non-tissue culture plates surface overnight at 4° C. Unbound FGF-1 was removed, and 200 μl of 0.1% bovine serum albumin in PBS was added and incubated for 60 min at room temperature. The wells were washed with PBS and soluble integrin αvβ3 in 50 μl in Hepes-Tyrode buffer supplemented with 1 mM Mn^2+ were added to the wells and incubated at room temperature for 60 min. After non-bound soluble integrin were removed by rinsing the wells with the same buffer. Horseradish peroxidase (HRP) conjugated anti His-tag mouse IgG was added to well and incubated 60 min. Non-bound antibodies were removed by rinsing the wells with the same buffer, bound integrins were quantified by measuring the absorbance of 450 nm developed from adding the substrate (3,3′,5,5′-tetramethylbenzidine) of HRP unbound protein was aspirated, and the wells were washed with PBS three times.

ERK1/2 = experiment: MAP kinase (ERK1/2) activation, western blot; type: cell-based, mouse; conditions: 5 μg/ml heparin
Procedure: Serum starved Balb3T3 cells were stimulated with wild-type and mutant FGF-1s (5 ng/ml) in the presence or absence of 5 μg/ml heparin for 10 min at 37° C. Cell lysates were analyzed by western blotting with anti-phospho ERK1/2 (anti phospho-ERK). Total amount of ERK1/2 in each lane was determined by blotting with anti-ERK1/2. Controls contain medium alone (none) or medium containing 10% fetal calf serum (FCS).
Balb3T3 cells were grown to confluence and serum starved in DMEM supplemented with 0.4% fetal calf serum for 24 h, and stimulated with wild type and mutant FGF-1 (5 ng/ml) in the presence or absence of 5 μg/ml heparin for 10 min at 37° C. Cells were washed twice with ice-cold PBS and lysed with the lysis buffer (20 mM Tris-HCI pH 8.0, 120 mM NaCl, 5 mM EDTA, 0.5% Triton-X100, 1 mM PMSF, 1 mM DTT, 10 mM NaF, 1 mM Na3VO4, 10 μg/ml aprotinin). Cell lysates were separated on 4-12% NuPAGE Bis-Tris Gel (invitrogen). Proteins were then transferred to PVDF membranes (Milli-pore), probed with antibodies, and bound antibodies were detected by HRP-conjugated anti-mouse IgG and chemiluminescence HRP substrate (Pierce). The antibodies used were anti-phospho-ERK1/2, anti-ERK1/2 (Cell Signaling Technology).

FGF-1-αvβ3 interaction = molecular target: T2, FGF-1-αvβ3 interaction (Homo sapiens, UniProt P05106+P06756); experiment: Inhibition of FGF-1-αvβ3 interaction by γC; type: binding; conditions: immobilized FGF-1 10 μg/ml, increasing concentrations of soluble γC
T2 construct: using the soluble αv and β3 expression constructs provided by Tim Springer; made in house; host or cells: CHO K1 (integrin); E. coli BL21 (DE3) (FGF-1)
T2 sequence (P06756 31-992 limits assumed): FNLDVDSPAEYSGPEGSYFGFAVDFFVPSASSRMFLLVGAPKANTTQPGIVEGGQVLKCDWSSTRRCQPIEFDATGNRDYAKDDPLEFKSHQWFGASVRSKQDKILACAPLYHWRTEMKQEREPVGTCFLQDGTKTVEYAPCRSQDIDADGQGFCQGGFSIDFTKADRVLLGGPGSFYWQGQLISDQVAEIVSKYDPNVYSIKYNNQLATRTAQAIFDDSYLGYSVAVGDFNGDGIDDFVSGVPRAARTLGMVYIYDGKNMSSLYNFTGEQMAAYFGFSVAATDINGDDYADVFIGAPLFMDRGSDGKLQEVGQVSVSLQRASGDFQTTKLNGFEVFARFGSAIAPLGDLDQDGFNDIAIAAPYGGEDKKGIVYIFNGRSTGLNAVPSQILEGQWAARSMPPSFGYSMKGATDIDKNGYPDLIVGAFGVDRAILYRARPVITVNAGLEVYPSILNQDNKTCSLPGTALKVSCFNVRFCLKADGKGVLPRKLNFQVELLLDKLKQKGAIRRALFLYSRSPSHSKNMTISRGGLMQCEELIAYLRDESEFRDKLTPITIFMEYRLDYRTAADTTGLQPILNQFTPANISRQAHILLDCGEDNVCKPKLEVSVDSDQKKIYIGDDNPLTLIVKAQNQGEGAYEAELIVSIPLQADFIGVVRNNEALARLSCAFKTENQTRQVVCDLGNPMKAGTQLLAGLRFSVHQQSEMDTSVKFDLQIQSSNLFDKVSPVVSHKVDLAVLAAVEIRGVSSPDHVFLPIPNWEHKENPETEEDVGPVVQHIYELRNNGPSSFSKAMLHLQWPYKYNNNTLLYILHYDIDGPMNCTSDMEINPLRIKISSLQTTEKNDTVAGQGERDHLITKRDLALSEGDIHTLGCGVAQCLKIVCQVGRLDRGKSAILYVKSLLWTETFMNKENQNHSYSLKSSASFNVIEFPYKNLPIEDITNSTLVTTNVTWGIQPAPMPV
T2 sequence (P05106 27-718 limits assumed): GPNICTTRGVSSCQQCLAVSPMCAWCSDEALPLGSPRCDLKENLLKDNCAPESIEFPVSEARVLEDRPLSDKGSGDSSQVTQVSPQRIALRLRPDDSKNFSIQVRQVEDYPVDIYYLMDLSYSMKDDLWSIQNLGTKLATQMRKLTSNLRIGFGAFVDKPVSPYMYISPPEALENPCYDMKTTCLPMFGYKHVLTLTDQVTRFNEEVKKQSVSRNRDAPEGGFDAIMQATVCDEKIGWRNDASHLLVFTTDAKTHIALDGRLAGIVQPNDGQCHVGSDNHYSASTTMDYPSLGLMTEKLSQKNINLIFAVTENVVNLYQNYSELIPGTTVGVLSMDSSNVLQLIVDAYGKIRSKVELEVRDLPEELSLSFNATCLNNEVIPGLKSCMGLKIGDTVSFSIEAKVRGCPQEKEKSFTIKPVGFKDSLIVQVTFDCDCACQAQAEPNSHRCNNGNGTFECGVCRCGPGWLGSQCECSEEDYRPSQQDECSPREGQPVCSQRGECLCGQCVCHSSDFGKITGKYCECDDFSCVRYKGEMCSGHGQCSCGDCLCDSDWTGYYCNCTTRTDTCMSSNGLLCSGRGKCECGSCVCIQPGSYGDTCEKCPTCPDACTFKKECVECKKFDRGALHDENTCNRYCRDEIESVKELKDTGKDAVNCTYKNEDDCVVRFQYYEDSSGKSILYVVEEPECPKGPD
Procedure: FGF-1 (10 μg/m) was immobilized to the plastic plate. Soluble αvβ3 was added to the wells together with increasing concentrations of soluble γC. Binding was determined as described in A. Data is shown as percent binding+/−SD of triplicate experiments with no addition of γC as 100.
FGF-1 (10 μg/ml) was immobilized to wells of 96-well plates. Soluble αvβ3 integrin was added to the wells with various concentration of γC. Bound integrin was detected by using HRP-conjugated anti-6His antibodies and its substrate as described above.

T1 sequence (P06756 31-992 limits assumed): as the sequence (P06756 31-992 limits assumed) above
T1 sequence (P05106 27-718 limits assumed): as the sequence (P05106 27-718 limits assumed) above

binding of soluble αvβ3 to the immobilized protein (integrin αvβ3): bound
Molecule: FGF-2: basic FGF, used as a positive control for αvβ3 binding

Molecule: heparin [reference compound]
effect of heparin on FGF-1-induced ERK1/2 activation (ERK1/2): did not enhance

blocking of FGF-1-αvβ3 interaction (FGF-1-αvβ3 interaction): effectively block
B1: γC: globular carboxyl-terminal domain of the fibrinogen γ-chain, a known ligand for αvβ3 (protein)
chain: KDCQDIANKGAKQSGLYFIKPLKANQQFLVYCEIDGSGNGWTVFQKRLDGSVDFKKNWIQYKEGFGHLSPTGTTEFWLGNEKIHLISTQSAIPYALRVELEDWNGRTSTADYAMFKVGPEADKYRLTYAYFAGGDAGDAFDGFDFGDDPSDKFFTSHNGMQFSTWDNDNDKFEGNCAEQDGSGWWMNKCHAGHLNGVYYQGGTYSKASTPNGYDNGIIWATWKTRWYSMKKTTMKIIPFNRLTIGEGQQHHLGGAKQAGDV

Reference: US8796209B2, “Compositions and methods related to anti-FGF agents” (The Regents of the University of California, priority 2005, dated 2014)
